From publication PMC10978839

Legend:
[1] = CRT expression and nuclear HMGB1 with doxorubicin; details: glycan lost; control: SEMA7A-WT cells
cell viability = details: glycan lost; control: SEMA7A-WT cells
[2] = real-time PCR of PD-L1 isoforms; details: glycan lost; control: SEMA7A-WT cells
[3] = CHX chase immunoblot, turnover rate; details: glycan lost; control: SEMA7A-WT
[4] = cleaved Caspase-3 and proliferation; details: glycan lost; control: SEMA7A-WT cells
[5] = non-reducing vs reducing western blot; details: glycan lost; control: SEMA7A-WT
[6] = CHX plus MG132/HCQ/BTZ, immunoblot; degradation pathway; details: glycan lost; control: SEMA7A-WT
[7] = IL-2 ELISA after coculture; details: glycan lost; control: SEMA7A-WT tumor cells
[8] = flow cytometry of PD-1, LAG3, CTLA4, TIM3; details: glycan lost; control: SEMA7A-WT tumor cells
[9] = coculture, Annexin V/PI flow cytometry; details: glycan lost; control: SEMA7A-WT tumor cells
[10] = confocal colocalisation with calreticulin/GM130; membrane trafficking; details: glycan lost; control: SEMA7A-WT
ELISA of secreted SEMA7A = details: glycan lost; control: SEMA7A-WT

B1: SEMA7A: 5NQ (protein)
parent chain: MTPPPPGRAAPSAPRARVPGPPARLGLPLRLRLLLLLWAAAASAQGHLRSGPRIFAVWKGHVGQDRVDFGQTEPHTVLFHEPGSSSVWVGGRGKVYLFDFPEGKNASVRTVNIGSTKGSCLDKRDCENYITLLERRSEGLLACGTNARHPSCWNLVNGTVVPLGEMRGYAPFSPDENSLVLFEGDEVYSTIRKQEYNGKIPRFRRIRGESELYTSDTVMQNPQFIKATIVHQDQAYDDKIYYFFREDNPDKNPEAPLNVSRVAQLCRGDQGGESSLSVSKWNTFLKAMLVCSDAATNKNFNRLQDVFLLPDPSGQWRDTRVYGVFSNPWNYSAVCVYSLGDIDKVFRTSSLKGYHSSLPNPRPGKCLPDQQPIPTETFQVADRHPEVAQRVEPMGPLKTPLFHSKYHYQKVAVHRMQASHGETFHVLYLTTDRGTIHKVVEPGEQEHSFAFNIMEIQPFRRAAAIQTMSLDAERRKLYVSSQWEVSQVPLDLCEVYGGGCHGCLMSRDPYCGWDQGRCISIYSSERSVLQSINPAEPHKECPNPKPDKAPLQKVSLAPNSRYYLSCPMESRHATYSWRHKENVEQSCEPGHQSPNCILFIENLTAQQYGHYFCEAQEGSYFREAQHWQLLPEDGIMAEHLLGHACALAASLWLGVLPTLTLGLLVH
With B1 as the protein, how does the “other: immunogenic cell death markers” value [1] read?
Its value is “increases”.

And the “other: sensitivity to doxorubicin” value (cell viability)?
The value was “increases”.

What about the “other: PD-L1 alternative splicing” value [2] of the same protein?
The value was “changes”.

And the degradation_or_half_life [3]?
The degradation_or_half_life was “increases”.

What about the “other: sensitivity to EGFR inhibitors” value [4] of the same protein?
Its value is “increases”.

And the oligomerisation [5]?
Its oligomerisation is “abolishes”.

What about the degradation_or_half_life [6] of the same protein?
The degradation_or_half_life was “changes”.

What about the “other: IL-2 release by cocultured Jurkat cells” value [7] of the same protein?
The value was “increases”.

And the “other: exhaustion of cocultured CD8+ T cells” value [8]?
The value was “decreases”.

What about the “other: susceptibility to CD8+ T-cell killing” value [9] of the same protein?
The value was “increases”.

What about the localisation_or_trafficking [10] of the same protein?
Its localisation_or_trafficking is “decreases”.

And the expression_or_secretion (ELISA of secreted SEMA7A)?
Its expression_or_secretion is “no change”.
